Results published in patent US20150125386A1, “HUMANIZED ANTI-CEACAM5 ANTIBODY AND USES THEREOF” (IMMUNOMEDICS, INC., priority 2013, published 2015).

Tests used:
[1] = tested on: GW-39 human colonic tumor; assay: In vivo therapy of lung metastases of GW-39 human colonic tumors in nude mice; settings: 250 μg, q4d×8, therapy initiated 14 days after i.v. tumor injection
Protocol: FIG. 3. Survival curves of hMN14-CL-SN-38 treated mice bearing GW-39 lung metastatic disease.
Alternative immunoconjugates, comprising different linkers between the antibody and the SN-38, were prepared as disclosed in U.S. Pat. No. 7,591,994, the Figures and Examples section of which are incorporated herein by reference. A lung metastatic model of colonic carcinoma was established in nude mice by i.v. injection of GW-39 human colonic tumor suspension, and therapy was initiated 14 days later. Specific anti-CEACAM5 antibody conjugates, hMN14-CL1-SN-38 and hMN14-CL2-SN-38, as well as nontargeting anti-CD22 antibody control conjugates, hLL2-CL1-SN-38 and hLL2-CL2-SN-38 and equidose mixtures of hMN14 and SN-38 were injected at a dose schedule of q4d×8, using different doses. […] The dose-responsiveness of therapeutic effect of conjugated antibody was also observed.

[2] = tested on: LS174T human colon adenocarcinoma; assay: Biodistribution of 131I-labelled humanized MN-14 IgG in nude mice bearing human colon cancer; assay type: in vivo
Protocol: The biodistribution of labeled humanized MN-14 IgG in nude mice bearing human colon cancer was determined. For radiolocalization studies, at 4-5 weeks female athymic mice (nu/nu, Harlan, Indianapolis, Ind.) were given s.c. 0.2 ml of a 10% suspension of LS174T human colon adenocarcinoma prepared from a xenograft serially propagated in an athymic mouse (Sharkey et al., Cancer Res., 50: 828-34 (1990)). After waiting 2 weeks for tumor development, the mice were injected i.v. with 20 μCi (about 2 μg) of ^131I-labelled humanized MN-14 antibodies. Groups of 4-5 mice were sacrificed at intervals thereafter, and radioactivity localized in tissues. […] Tumor:nontumor ratios were excellent.

metastatic colon cancer = assay: Treatment of metastatic colon cancer with P2PDox conjugate of Class III anti-CEA antibody (Example 11); assay type: in vivo, human; settings: 8 weeks from treatment begin
Protocol: A prodrug form of 2-pyrrolinodoxorubicin, referred to herein as “P2PDox”, is prepared and conjugated to the hMN-14 antibody as disclosed in U.S. patent application Ser. No. 14/175,089, the Figures and Examples sections of which are incorporated herein by reference.
A person with metastatic colon cancer (3-5 cm diameters) to their left and right liver lobes, as well as a 5 cm metastasis to their right lung, and an elevated blood CEA value of 130 ng/mL, is treated with a 150 mg dose of hMN-14 Class III anti-CEA antibody conjugated to P2PDox at 4 drug molecules per IgG, administered by slow intravenous infusion every other week for 4 doses. […] At the same time, their blood CEA titer is reduced to 30 ng/mL. Repeated courses of therapy continue as their neutropenia normalizes.

gastric adenocarcinoma = assay: Gastric cancer patient with stage IV metastatic disease treated with IMMU-130 (Example 6); assay type: in vivo, human
Protocol: The patient is a person who sought medical attention because of gastric discomfort and pain related to eating for about 6 years, and with weight loss during the past 12 months. […] The patient has their gastric tumor resected, and then has baseline CT measurements of their metastatic tumors.
The patient is then given experimental therapy with IMMU-130 (anti-CEACAM5-SN-38) on a weekly schedule of 8 mg/kg. […] The patient then undergoes a CT study to measure their metastatic tumor sizes and to view the original area of gastric resection.

[3] = tested on: LS174T human colon carcinoma; assay: In vivo therapy of athymic nude mice bearing LS174T colon carcinoma xenografts; settings: LS174T s.c. xenograft, FIG. 2
Protocol: FIG. 2. In vivo therapy of athymic nude mice, bearing LS174T human colon carcinoma, with hMN-14-CL2A-SN-38 conjugate.
(§1) The efficacy of drug-conjugated Class III anti-CEA antibody was investigated. Immunoconjugates comprising antibody-SN-38 conjugates were prepared as discussed in U.S. Pat. No. 7,999,083, the Figures and Examples sections of which are incorporated herein by reference. Immune-compromised athymic nude mice (female), bearing subcutaneous human pancreatic or colon tumor xenografts were treated with either specific CL2A-SN-38 conjugate or control conjugate or were left untreated. The therapeutic efficacies of the specific conjugates were observed.

[4] = tested on: advanced metastatic colon cancer; assay: Therapy of advanced metastatic colon cancer with anti-CEACAM5 immunoconjugate (Example 9); assay type: in vivo, human; settings: 12 mg/kg every other week, irinotecan-unresponsive
Protocol: The patient is a person who fails prior therapies for metastatic colon cancer. The first line of therapy is FOLFIRINOX+AVASTIN® (built up in a stepwise manner) starting with IROX (Irinotecan+Oxaliplatin) in the first cycle. […] This is followed by surgery to remove tumor tissue. […] This leads to the initiation of the second line regimen (FOLFIRI+Cetuximab). […] Then RF ablation of liver metastases is performed, followed by continuation of adjuvant chemotherapy with FOLFIRINOX+Cetuximab, followed by maintenance Cetuximab for approximately one year. […] This leads to a wedge resection of the lung nodules. Subsequently FOLFIRI+Cetuximab is restarted and continued. Later CT scans show both lung and liver metastases.
At the time of administration of the hMN-14-SN-38 immunoconjugate, the patient has advanced metastatic colon cancer, with metastases of both lung and liver, which is unresponsive to irinotecan (camptothecin). The hMN-14-SN-38 immunoconjugate is administered at a dosage of 12 mg/kg, which is repeated every other week.
The effect of the antibody moiety in improved targeting of the camptothecin accounts for the efficacy of the SN-38 moiety in the cancer that had been previously resistant to unconjugated irinotecan.

rectal carcinoma = assay: Continuous infusion of labetuzumab-SN-38 in patient with liver metastases of rectal carcinoma (Example 8); assay type: in vivo, human
Protocol: The patient was previously resected for a rectal carcinoma and receives pre- and post-operative radiochemotherapy as per conventional treatment. […] They then receive a repeat continuous infusion therapy 5 weeks later, now for 3 weeks, at 1 mg/kg.

[5] = tested on: stage-IV metastatic colonic cancer; assay: Therapy of advanced colon cancer patient refractory to prior chemo-immunotherapy with IMMU-130 (Example 4); assay type: in vivo, human
Protocol: Thereafter, they were given courses of cetuximab, either alone or combined with FOLFIRI (leucovorin, 5-flurouracil, irinotecan) chemotherapy during the next year or more. […] The index lesions chosen by the radiologist for measuring tumor size change by computed tomography were the mid-lobe of the right lung and the liver metastases, both totaling 91 mm as the sum of their longest diameters at the baseline prior to IMMU-130 (anti-CEACAM5-SN-38) therapy.
This patient received doses of 16 mg/kg of IMMU-130 by slow IV infusion every other week for a total of 17 treatment doses.

[6] = tested on: Capan 1 human pancreatic carcinoma; assay: In vivo therapy of athymic nude mice bearing Capan 1 pancreatic tumor xenografts with antibody-CL2A-SN-38 conjugates; settings: Capan 1 s.c. xenograft, FIG. 1
Protocol: FIG. 1. In vivo therapy of athymic nude mice, bearing Capan 1 human pancreatic carcinoma, with antibody-CL2A-SN-38 conjugates.
as §1

[7] = tested on: metastatic colonic cancer (Stage IV); assay: Therapy of a patient with advanced colonic cancer with IMMU-130 (Example 5); assay type: in vivo, human
Protocol: This patient is a person initially diagnosed with metastatic colonic cancer (Stage IV). […] Their baseline CEA titer just before this therapy is 15 ng/mL. […] The patient continues their investigational therapy.

[8] = compared with rituximab; cited from earlier work
[9] = 131I-labelled, i.v., nude mice bearing LS174T

**Q.** Which median survival [1] does the source give for “hLL2-CL2-SN-38: nontargeting anti-CD22 antibody control conjugate” here?
**A.** 77 days

**Q.** Which results are given for “hMN-14: humanized Class III anti-CEA (anti-CEACAM5) antibody; heavy and light chains SEQ ID NO:1 and SEQ ID NO:2”?
**A.** time of maximum tumor accretion [2, 9]: ≤ 2 days; tumor accretion of the antibody [2, 9]: excellent tumor accretion; Tumor:nontumor ratios ([2]; 131I-labelled, nude mice bearing LS174T): excellent; uptake by the spleen ([2]; compared with mMN-14): higher uptake of hMN-14 by the spleen than there was of mMN-14; blood clearance ([2]; compared with parental mMN-14): more rapid than the parental mMN-14 antibody

**Q.** With “hMN-14 Class III anti-CEA antibody conjugated to P2PDox” as the substance, how does the “reduction of the total mean diameters of the 3 target lesions (CT)” value (metastatic colon cancer; 150 mg every other week for 4 doses) read?
**A.** 25%

**Q.** And the “response by RECIST1.1 criteria” value (metastatic colon cancer)?
**A.** good stable disease response

**Q.** What about the “blood CEA titer” value (metastatic colon cancer; 130 ng/mL before) of the same substance?
**A.** 30 ng/mL

**Q.** Which diarrhea (gastric adenocarcinoma; 8 mg/kg weekly, after 3 weeks) does the source give for IMMU-130 here?
**A.** grade 1

**Q.** And the neutropenia (gastric adenocarcinoma; 8 mg/kg weekly, after 3 weeks)?
**A.** grade 2

**Q.** And the “decrease of the sum of the metastatic lesions (CT, RECIST) vs. baseline” value (gastric adenocarcinoma; 8 mg/kg weekly, first CT study on therapy)?
**A.** 23%

**Q.** And the “decrease of the sum of all metastatic lesions (CT)” value (gastric adenocarcinoma; after a total of 13 infusions)?
**A.** 41%

**Q.** What about the “response by RECIST” value (gastric adenocarcinoma; after a total of 13 infusions) of the same substance?
**A.** partial response

**Q.** And the CEA titer (gastric adenocarcinoma; at first CT study, pre-IMMU-130 baseline 14.5 ng/mL)?
**A.** 7.2 ng/mL

**Q.** And the “blood CEA” value (gastric adenocarcinoma; last measurement, after maintenance therapy every third week)?
**A.** 4.8 ng/mL

**Q.** And the therapeutic efficacy [3]?
**A.** more efficacious than non-treatment

**Q.** What about the “response by RECIST criteria” value [4] of the same substance?
**A.** partial response

**Q.** And the “liver metastases by CT” value (rectal carcinoma; continuous infusion 2 mg/kg over 17 days, then 1 mg/kg for 3 weeks, three weeks later)?
**A.** 1 of the liver metastases has disappeared

**Q.** What about the “blood CEA titer” value (rectal carcinoma; three weeks after second infusion, 6.3 ng/mL before) of the same substance?
**A.** 2.4 ng/mL

**Q.** And the nausea and vomiting (rectal carcinoma; while under therapy)?
**A.** grade 2

**Q.** And the neutropenia (rectal carcinoma; while under therapy)?
**A.** grade 2

**Q.** What about the “side effects (nausea, diarrhea, fatigue)” value ([5]; 16 mg/kg IV every other week, after the first treatment and treatments 4 and 5) of the same substance?
**A.** grade 1 nausea, diarrhea and fatigue

**Q.** And the “duration of fatigue after the first infusion” value ([5]; 16 mg/kg every other week)?
**A.** 2 weeks

**Q.** And the “duration of nausea, diarrhea and occasional vomiting” value ([5]; 16 mg/kg every other week)?
**A.** 2 to 3 days

**Q.** And the alopecia ([5]; 16 mg/kg every other week, after treatment 3)?
**A.** grade 2

**Q.** And the “change of sum of index lesions (CT) from baseline” value ([5]; after 4 treatments, 16 mg/kg every other week)?
**A.** 28.6%

**Q.** What about the “reduction of sum of index lesions (CT) from baseline” value ([5]; after 8 treatments) of the same substance?
**A.** 40.6%

**Q.** What about the “response according to RECIST criteria” value ([5]; after 8 treatments) of the same substance?
**A.** partial remission

**Q.** What about the “anti-labetuzumab antibody in blood” value ([5]; after 16 doses) of the same substance?
**A.** none was detected

**Q.** And the “plasma CEA titer” value ([5]; after the third therapy dose, baseline 12.6 ng/mL)?
**A.** 2.1 ng/mL

**Q.** And the “index lesions less than baseline (CT)” value ([5]; another 2 months after the 8-treatment evaluation)?
**A.** 31.9%

**Q.** And the therapeutic efficacy [6]?
**A.** better efficacies than control hA20-CL2A-SN-38 conjugate

**Q.** And the tolerability ([7]; 6 mg/kg twice weekly for 2 weeks, one week rest, more than 20 doses)?
**A.** tolerated very well, without any major hematological or non-hematological toxicities

**Q.** And the “shrinkage of the index tumor lesions” value ([7]; 8-week evaluation)?
**A.** 21%

**Q.** And the “ascites and pleural effusion” value ([7]; 13 weeks)?
**A.** both decrease

**Q.** And the “shrinkage of the index tumor lesions” value ([7]; 13 weeks)?
**A.** 27%

**Q.** What about the “plasma CEA titer” value ([7]; within 2 months of therapy, baseline 15 ng/mL) of the same substance?
**A.** 1.3 ng/mL

**Q.** Which immunogenicity in subjects [8] does the source give for “veltuzumab: humanized IgG1 antibody against CD20” here?
**A.** less immunogenic in subjects than rituximab

**Q.** For “hLL2-CL1-SN-38: nontargeting anti-CD22 antibody control conjugate”, which median survival [1] is on record?
**A.** 56 days

**Q.** For hRS7-CL2A-SN-38, which therapeutic efficacy [6] is on record?
**A.** better efficacies than control hA20-CL2A-SN-38 conjugate
